Assay results reported in article PMC5802732, “A chiral selectivity relaxed paralog of DTD for proofreading tRNA mischarging in Animalia” (Nature Communications, 2018).

Molecular target: the molecule itself
Experiment: crystal structure; un-tagged MmATD alone; sitting-drop vapor diffusion, reservoir 0.1 M Bicine (pH 8.0) and 15% PEG1500; 1.86 Å; two monomers per asymmetric unit

B1: Animalia-specific tRNA deacylase from Mus musculus (enzyme)
chain: MADGGRVAQARALLQQCLHARLQVRPADGDAAAQWVEIRRGLVIYVCFFKGADTDLLPKMVNTLLNVKLSETETGKHVSILDLPGDVLIIPQATLGGRVKGRSMQYHSNSGKEEGSELYSQFVSLCEKAVANNTKSVEAGVAVAHGTYGNRQVLKLDTNGPYTHLIEF
notes: ATD (Animalia-specific tRNA deacylase, annotated in databases as probable DTD2) from Mus musculus; un-tagged protein used for crystallisation; gene PCR-amplified from cDNA into pET-28b; Homodimer in the crystal (two monomers per asymmetric unit, 325 residues modelled); also called MmATD; ATD; source: E. coli Rosetta(DE3), purified (cation exchange chromatography, SEC)
binding result: binds
